Test results reported in paper PMC4615642 (RNA Biology, 2015).

Assays:
[1] = target: T1, Myo4p-C (C-terminal cargo-binding region of Myo4p, amino acids 923-1471, His6 fusion) (S. cerevisiae, UniProt P32492 923-1471); assay: SEC-MALS
T1 sequence (looked up): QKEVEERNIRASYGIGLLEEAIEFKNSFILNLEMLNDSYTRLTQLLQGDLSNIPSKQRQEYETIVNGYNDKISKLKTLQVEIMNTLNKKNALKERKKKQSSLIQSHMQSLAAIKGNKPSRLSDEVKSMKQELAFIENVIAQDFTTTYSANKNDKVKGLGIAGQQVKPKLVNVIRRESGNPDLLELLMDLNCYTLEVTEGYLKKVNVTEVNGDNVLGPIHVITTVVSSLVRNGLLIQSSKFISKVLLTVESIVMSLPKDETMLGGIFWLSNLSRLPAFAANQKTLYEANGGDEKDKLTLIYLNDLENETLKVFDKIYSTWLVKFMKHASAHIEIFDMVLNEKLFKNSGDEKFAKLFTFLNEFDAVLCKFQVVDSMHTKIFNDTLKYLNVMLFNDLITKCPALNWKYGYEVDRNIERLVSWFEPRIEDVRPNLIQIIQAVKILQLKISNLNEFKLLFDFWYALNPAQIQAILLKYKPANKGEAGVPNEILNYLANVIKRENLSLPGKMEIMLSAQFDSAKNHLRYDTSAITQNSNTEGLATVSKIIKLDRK

SEC-MALS = target: the molecule itself; assay: SEC-MALS

stoichiometry N [1]: 2 She3p per Myo4p
B1: She3p-His6 (full-length She3p) (natural protein, S. cerevisiae, UniProt P38272 1-425, looked up)
chain: MSDQDNTQTSSSKLAPHHNIFMANLESSPTKDRNTSSQNASSSRVIESLHDQIDMLTKTNLQLTTQSQNLLSKLELAQSKESKLLENLNLLKNENENLNSIFERKNKKLKELEKDYSELSNRYNEQKEKMDQLSKLAKNSSAIEQSCSEKLQNMEVNYNSLLESQNLYRDHYSDEISKLNEKIGLLELELSNQNLNYGSDTSSNSDIELNLNKFNDSVKDLKSLETEKDSKLSKIITHSLDELNLQSWLNLYQTNENLISTFAEKMDLKDVLKRNDEKISNKGAVVQTLKKNVQTQVESNNADALSSNNAQDMLPIKMVKLRKTPNTNDSSSNGNSSNNKRRSFYTASPLLSSGSIPKSASPVLPGVKRTASVRKPSSSSSKTNVTHNNDPSTSPTISVPPGVTRTVSSTHKKKGNSMVVHGAQS
stoichiometry N (SEC-MALS): 2
